Patent publication US20220073643A1

B1: 242H12D6 (antibody, V domains shown)
VH: QAYLQQSGAELVRSGASVKMSCKASGYTFTSHNMHWVKQTPGQGLEWIGYIYPGNGGTNYNQKFKGKATLTADTSSSTAYMQINSLTSEDSAVYFCTRDYYGNSFAYWGQGTLVTVSA
VL: DIVMTQSPSSLTEKAGERVSMSCKSSQSLFNSGNQKNYLTWYQQKPGQPPKLLIYWASTRESGVPDRFTGSGSGTDFTLTISSVQAEDLAVYYCQNDYRYPFTFGAGTKLELK
B2: 257G7B9 (antibody, V domains shown)
VH: QAYLQQSGAELVRSGASVKMSCKASGYTFTSHNLHWVKQTPGQGLEWIGYIYPGNGNTNYNQKFKGKATLTADTSSSTAYMQISSLTSEDSAVYFCTRDYYGNSFAYWGQGTLVTVSA
VL: DIVMTQSPSSLTEKAGERVSMSCKSSQSLFNSGNQKNYLTWYQQKPGQPPKLLIYWASTRESGVPDRFTGSGSGTDFTLTISSVQAEDLAVYYCQNNYWFPFTFGAGTKLELK
B3: 256C3D3 (antibody, V domains shown)
VH: QAYLQQSGAELVRSGASVKMSCKASGYAFTSHNMHWVKQTPGQGLEWIGYISPGNGYTNYNQKFRGKATLTADTSSSTAYMQIGSLTSEDSAVYFCTRDYYGNSFAYWGQGTLVTVSA
VL: DIVMTQSPSSLTEKAGERVSMSCKSSQSLFNSGNQKNYLTWYQQKPGQPPKLLIYWASTRESGVPDRFTGSGSGTDFTLTISSVQAEDLAVYYCQNNYWFPFTFGAGTKLELK
B4: 252F1B10 (antibody, V domains shown)
VH: QAYLQQSGAELVRSGASVKMSCKASGYTFTSHNMHWVKQTPGQGLEWIGYIYPGNGGTNYNQKFKGKATLTADTSSSTAYMQINSLTSEDSAVYFCTRDYYGNSFAYWGQGTLVTVSA
VL: DIVMTQSPSSLTEKAGERVSMSCKSSQSLFNSGNQKNYLTWYQQKPGQPPKLLIYWASTRESGVPDRFTGSGSGTDFTLTISSVQAEDLAVYYCQNDYRYPFTFGAGTKLELK
B5: 243F6D2 (antibody, V domains shown)
VH: QAYLQQSGAELVRSGASVKMSCRASGYTFTSHNMHWVKQTPGQGLEWIGYIYPGNGGTYYNQKFKGKATLTADTSSSTAYMQISSLTSEDSAVYFCARDYYGNSFVYWGQGTLVTVSA
VL: DVVMTQSPSSLTEKTGEKVSMSCKSSQSLLNSGNQKNYLTWYQQKPGQPPKLLIYWASTRESGVPDRFTGSGSGTDFTLTISSLQTEDLAVYYCQNNYRYPFTFGAGTKLELK
B6: 248E6A7 (antibody, V domains shown)
VH: QAYLQQSGAELVRSGASVKMSCRASGYTFTSHNMHWVKQTPGQGLEWIGYIYPGNGNTYYNQKFKVKATLTADTSSNTAYMQINSLTSEDSAVYFCVRDYYGNSFVYWGQGTLVTVSA
VL: DVVMTQSPSSLTEKTGEKVTMTCKSSQSLLNSGNQKNYLAWYQQKPGQPPKLLIYWASTRESGVPDRFIGSGSGTDFTLTISSLQTEDLAVYYCQNNYMYPFTFGAGTKLELK
B7: 252E7C9 (antibody, V domains shown)
VH: QTYLQQSGAELVRSGASVKMSCRTSGYSFTSHNMHWVKQTPGQGLEWIGYIYPGNGGSYYNQKFKGKAILTADTSSSTAYMQISSLTSEDSAVYFCTRDYYGNSFVYWGQGTLVTVSA
VL: DVVMTQSPSSLTEKTGEKVSMSCKSSQSLLNSGNQKNYLTWYQQKPGQPPKLLIYWASTRESGVPDRFTGSGSGTDFTLTISSLQTEDLAIYYCQNNFRYPFTFGAGTKLELK
B8: 262H9H6 (antibody, V domains shown)
VH: QAYLQQSGAELVRSGASVKMSCKASGYTFTSHNMHWVKQTPGQGLEWIGYISPGNGYTNYNQKFRGKATLTADTSSSTAYMQISSLTSEDSAVYFCTRDYYGNSFTYWGQGTLVTVSA
VL: DIVMTQSPSSLTEKAGERVSMSCKSSQSLFNSGNQKNYLTWYQQKPGQPPKLLIYWASTRESGVPDRFTGSGSGTEFTLTISSVQAEDLAVYYCQNNYWFPFTFGAGTKLELK
B9: 260G9E8 (antibody, V domains shown)
VH: QADLQQSGAELVRSGASVKMSCKASGYTFASHNMHWVKQTPGQGLEWIGYIYPGNGGTKYNQKFTGKATLTADTSSSTAYMQITSLTSEDSAVYFCARDYYGNSFAYWGQGTLVTVSA
VL: DIVMTQSPSSLTEKAGEKVSMRCKSSQSLLNSGNQKNYLTWYQQKPGQPPKLLIYWASTRESGVPDRFTGSGSGTDFTLTISSVQADDLAVYYCQNDYMFPFTFGAGTKLELK
B10: 258D11C4 (antibody, V domains shown)
VH: QAYLQQSGAELVRSGASVKMSCKASGYTFSSHNMHWVKQTPGQGLEWIGYIYPGNGGTNYNQKFKGKATLTADTSSSTAYMQISSLTSEDSAVYFCTRDYYGNSFAYWGQGTLVTVSA
VL: DIVMTQSPSSLTEKAGERVSMSCKSSQSLFNSGNQKNYLTWYQQKPGQPPKLLIYWASTRQSGVPDRFTGSGSGTDFTLTISSVQAEDLAVYYCQNDYWFPFTFGAGTKLELK
B11: 257F1E11 (antibody, V domains shown)
VH: QAYLQQSGAELVRSGASVKMSCKASGYTFTSHNIHWVKQTPRQGLEWIGYIYPGNGGTNYNQKFKGKATLTADTSSSTAYMQISSLTSEDSAVYFCTRDYYGNSFAYWGQGTLVTVSA
VL: DIVMTQSPSSLTEKAGERVSMSCKSSQSLFNSGNQKNYLTWYQQKPGQPPKLLIYWASTRESGVPDRFTGSGSGTDFTLTISSVQAEDLAIYYCQNDYWYPFTFGAGTKLELK
B12: 257G7F7 (antibody, V domains shown)
VH: QAYLQQSGAELVRSGASVKMSCKASGYTFTSHNLHWVKQTPGQGLEWIGYIYPGNGNTNYNQKFKGKATLTADTSSSTAYMQISSLTSEDSAVYFCTRDYYGNSFAYWGQGTLVTVSA
VL: DIVMTQSPSSLTEKAGERVSMSCKSSQSLFNSGNQKNYLTWYQQKPGQPPKLLIYWASTRESGVPDRFTGSGSGTDFTLTISSVQAEDLAVYYCQNNYWFPFTFGAGTKLELK
B13: 243B4F2 (antibody, V domains shown)
VH: QAYLQQSGAELVRSGASVKMSCKASGYTFTSHNLHWVKQTPGQGLEWIGYIYPGNGNTNYNQKFKGKATLTADTSSSTAYMQISSLTSEDSAVYFCTRDYYGNSFAYWGQGTLVTVSA
VL: DIVMTQSPSSLTEKAGERVSMSCKSSQSLFNSGNQKNYLTWYQQKPGQPPKLLIYWASTRESGVPDRFTGSGSGTDFTLTISSVQAEDLAVYYCQNNYWFPFTFGAGTKLELK
B14: 257B1G9 (antibody, V domains shown)
VH: QAYLQQSGAELVRSGASVKMSCKASGYTFTSHNMHWVKQTPGQGLEWIGYIYPGNGGTNYNQKFKGKATLTADTSSSTAYMQISSLTSEDSAVYFCTRDYYGNSFAYWGQGTLVTVSA
VL: DIVMTQSPSSLTERAGERVSMSCKSSQSLFNSGNQKNYLTWYQQKPGQPPKLLIYWASTRESGVPDRFTGSGSGTDFTLTISSVQAEDLAVYYCQNDYRYPFTFGAGTKLELK
B15: 260F8A6 (antibody, V domains shown)
VH: QAYLQQSGAELVRSGASVKMSCRASGYTFTSHNMHWVKQTPGQGLEWIGYIYPGNGNTYYNQKFKGKATLTADTSSNTAYMQINSLTSEDSAVYFCVRDYYGNSFVYWGQGTLVTVSA
VL: DVVMTQSPSSLTEKTGEKVSMSCKSSQSLLNSGNQKNYLTWYQQKPGQPPKLLIYWASTRESGVPDRFIGSGSGTDFTLTISSLQTEDLAVYYCQNNYMYPFTFGAGTKLELK
B16: 186F7E10 (antibody, V domains shown)
VH: EVMLVESGGGLVKPGGSLKLSCAASRFTLNSYAMSWIRQTPEKKLEWVATITSGVSHTYYFDSVKGRFTISRDTAKNTLNLQMNSLRSEDTAVYYCARLYYGNSLDYWGQGTSVTVSS
VL: DIVMTQSPSSLTVTAGEKVTVSCKSSQSLLNSGNQKNYLTWYQQKPGQPPKLLIYWASTRESGVPDRFTGSGSGTDFTLTISSVQSEDLAVYYCQNNYIYPLTFGAGTTLELK
B17: 259B4D4 (antibody, V domains shown)
VH: EIQLQQSGPELMKPGASVRISCKASGYSFTSYYMHWMKQSHVKSLEWIGYIDPFNGNTRYNQKFKDKATLTVDKSSTTAYMHLSSLTSEDSAVYFCASLRFFAYWGQGTLVTVSA
VL: DIVMTQSPSSLTVTAGEKVTMSCNSSQSLLNSGNQKNYLTWYQQKPGQPPKLLIYWASSRESGVPDRFTGSGSGTDFTLTISTVQAEDLAVYYCQNDYSFPLTFGAGTRLELK
B18: 246B5F2 (antibody, IgM, V domains shown)
VH: EVMLVESGGGLMKPGGSLKLSCAASEFTFSNYAMSWVRQTPEKRLEWVATISSGRSSTYYPDSVKGRFTISRDNAKNTLYLQMSSLRSEDTAMYYCAGLGRGNAMEYWGQGTSVTVSS
VL: DIVMTQSPSSLTVTAGEKVTLSCKSSQSLLNSGNQKNYLTWYQQKPGQPPKLLIYWASTRESGVPDRFTGSGSGTDFILTINSVQAEDLAVYYCQNAYSYPFTFGSGTKLEIK
B19: 252C10F6 (antibody, V domains shown)
VH: QVHLKQSGRGLVQPSQSLSITCTVSGFSLPNYGVHWVRQPPGKGLEWLGVIWSGGNTDYNTVFKARLSITKDNSKSQVFFKMNSLQADDTAIYYCARNLYGNYDYAMDYWGQGTSVTVSS
VL: DIVMTQSPATLSVTPGDRVSLSCRASQSISDYLHWYQQKSHESPRLLIKYASQSISGIPSRFSGSGSGSEFTLSINSVEPEDVGVYYCQNGHSFPFTFGSGTKLEIK
B20: 194A2F7 (antibody, V domains shown)
VH: QIQLVQSGPELKKPGETVKISCKASGYTFTDYLIHWVKQAPGKGLKWMGWINTETGEPTYADDFKGRFALSLETSASTACLQINNLKNEDTATYFCARIYYGNSFDYWGQGTTLTVSS
VL: DIVMTQSPSSLPVTAGEKVTMTCKSSQNLLNSGNQKSYLTWYQQKPGQPPKLLIYWASTRETGVPDRFTGSGSGTDFTLTISSVQAEDLAVYYCQNAYRFPFTFGAGTRLELK
B21: 263E9F3 (antibody, V domains shown)
VH: EIQVQQSGPELMKPGASVKISCRSSGYSFTSYYIHWVKQSRGKSLEWIGYIDPFSGGTRYNQKFEGKATLTVDKSSTTAYMHLSSLTSEDSAVYYCASLRFFAYWGQGTLVTVSA
VL: DIVMTQSPSSLTVTAGEKVTMTCKSSQSLLNSGNQENYLTWYQQKPGQPPELLISRASTRQSGVPDRFTGSGSGTDFTLTISSVQTEDLAVYYCQNDYSYPLTFGAGTKLELK
B22: 254A8D5 (antibody, V domains shown)
VH: EVMLVESGGGLVKPGGSLKLSCAASGFTFSSYTVSWVRQTPEKRLEWVATSIVGSTYTYFPDSVKGRFTISRDFAKNTLFLQMSSLRSEDTAMYYCSRLGRGNAMDYWGQGTSVSVSS
VL: DIVMTQSPSSLTVTAGEKVTLNCRSSQSLLNSGNQKNYLTWYQQKPGQPPKLLIYWASTRESGVPDRFTGSGSGTDFTLTISSVQADDLAVYYCQNGYSYPFTFGSGTKLEIK

The binders below were run against Claudin18.2-His protein (human) (assay: indirect ELISA on coated Claudin18.2-His).
With B1 the EC50 was 0.0164 µg/mL.
B2 was tested, and the EC50 was 0.00978 µg/mL.
B3 was tested, and the EC50 was 0.0133 µg/mL.
Binder B4 has an EC50 of 0.00723 µg/mL.
Work on B5 yielded an EC50 of 0.0346 µg/mL.
In the case of B6, the EC50 is reported as 0.00969 µg/mL.
With B7 the EC50 was 0.00869 µg/mL.
With B8 the EC50 was 0.014 µg/mL.
B9 showed an EC50 of 0.0358 µg/mL.
B10 showed an EC50 of 0.0153 µg/mL.
B11 was tested, and the EC50 was 0.0262 µg/mL.
Work on B12 yielded an EC50 of 0.0198 µg/mL.
B13 was tested, and the EC50 was 0.0125 µg/mL.
In the case of B14, the EC50 is reported as 0.00793 µg/mL.
With B15 the EC50 was 0.0151 µg/mL.
B16 gave an EC50 of 0.0109 µg/mL.
Work on B17 yielded an EC50 of 0.0197 µg/mL.
With B18 the EC50 was 0.141 µg/mL.
Binder B19 has an EC50 of 1.66 µg/mL.
In the case of B20, the EC50 is reported as 0.0438 µg/mL.
B21 was tested, and the EC50 was 0.0113 µg/mL.
B22 was tested, and the EC50 was 0.0252 µg/mL.
